From article PMC4463457

B1: VSV-SNAP-hD3 (VSV- and SNAP-tagged human dopamine D3 receptor) [modified: SNAP tag covalently labelled with SNAP-Lumi4-Tb or SNAP-Red; SNAP tag covalently labelled with SNAP-Lumi4-Tb or SNAP-Red] [human] / itself (parent)
chain: MASLSQLSGHLNYTCGAENSTGASQARPHAYYALSYCALILAIVFGNGLVCMAVLKERALQTTTNYLVVSLAVADLLVATLVMPWVVYLEVTGGVWNFSRICCDVFVTLDVMMCTASILNLCAISIDRYTAVVMPVHYQHGTGQSSCRRVALMITAVWVLAFAVSCPLLFGFNTTGDPTVCSISNPDFVIYSSVVSFYLPFGVTVLVYARIYVVLKQRRRKRILTRQNSQCNSVRPGFPQQTLSPDPAHLELKRYYSICQDTALGGPGFQERGGELKREEKTRNSLSPTIAPKLSLEVRKLSNGRLSTSLKLGPLQPRGVPLREKKATQMVAIVLGAFIVCWLPFFLTHVLNTHCQTCHVSPELYSATTWLGYVNSALNPVIYTTFNIEFRKAFLKILSC

Variants of: B1
Test: htrFRET
Conditions: with itself; HEK293T cells transfected with increasing amounts of construct; read off a plot

Variant	ratio to parent
chain 1 F394A L395A K396A	0.5
chain 1 R210A Y212A V213A K216A	0.76
chain 1 Y31A Y32A L34A S35A	1
chain 1 D187A I190A V194A L199A	0.89
